Series [1] has as its system recombinant human proPR-3 secreted from Sf9 insect cells.
For series [2], the target named is recombinant human proPR-3 secreted from Sf9 insect cells (human) (UniProt P24158). The experiment in a line: cell-based or functional assay.

Where only a bound is given, the exact number is not on record here.

Sequence of recombinant human proPR-3 secreted from Sf9 insect cells (chain, as listed by the source): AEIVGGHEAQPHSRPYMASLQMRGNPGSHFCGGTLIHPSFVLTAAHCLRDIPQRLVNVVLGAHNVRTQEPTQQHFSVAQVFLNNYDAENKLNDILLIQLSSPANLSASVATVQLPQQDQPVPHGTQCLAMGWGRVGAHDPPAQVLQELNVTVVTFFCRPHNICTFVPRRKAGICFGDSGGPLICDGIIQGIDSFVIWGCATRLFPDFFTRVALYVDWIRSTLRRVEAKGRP
Sequence of recombinant human proPR-3 secreted from Sf9 insect cells (human) (P24158 26-256 V119I): as the sequence (chain, as listed by the source) above

As to “bovine dipeptidyl peptidase I (Boehringer Mannheim)”, in series [1], the “activation of proPR-3 (PR-3 activity on Boc-Ala-ONp after DPPI treatment)” value is 1.25% (wt/wt) was determined the minimum amount of DPPI required to obtain complete activation of PR-3 in 3 hr. at 37 °C. Turning to “bovine dipeptidyl peptidase I (Boehringer Mannheim) (from UniProt Q3ZCJ8 25-463) (enzyme)”, the N-terminal sequence of PR-3 after preparative DPPI activation in series [2] is > 85%.

The values above are taken from patent US6586222.
